Numbering of substitutions follows the chain as printed. Numbers in names are those of the source.
B1: GM-ALS_P178A: Glycine Max ALS1 variant with a P→A mutation at position 178 (protein)
chain: MAATASRTTRFSSSSSHPTFPKRITRSTLPLSHQTLTKPNHALKIKCSISKPPTAAPFTKEAPTTEPFVSRFASGEPRKGADILVEALERQGVTTVFAYPGGASMEIHQALTRSAAIRNVLPRHEQGGVFAAEGYARSSGLPGVCIATSGPGATNLVSGLADALMDSVPVVAITGQVARRMIGTDAFQETPIVEVSRSITKHNYLILDVDDIPRVVAEAFFVATSGRPGPVLIDIPKDVQQQLAVPNWDEPVNLPGYLARLPRPPAEAQLEHIVRLIMEAQKPVLYVGGGSLNSSAELRRFVELTGIPVASTLMGLGTFPIGDEYSLQMLGMHGTVYANYAVDNSDLLLAFGVRFDDRVTGKLEAFASRAKIVHIDIDSAEIGKNKQAHVSVCADLKLALKGINMILEEKGVEGKFDLGGWREEINVQKHKFPLGYKTFQDAISPQHAIEVLDELTNGDAIVSTGVGQHQMWAAQFYKYKRPRQWLTSGGLGAMGFGLPAAIGAAVANPGAVVVDIDGDGSFIMNVQELATIRVENLPVKILLLNNQHLGMVVQWEDRFYKSNRAHTYLGDPSSESEIFPNMLKFADACGIPAARVTKKEELRAAIQRMLDTPGPYLLDVIVPHQEHVLPMIPSNGSFKDVITEGDGRTRY
modifications: ALS1 variant P178A
B2: GM-ALS_K237F: Glycine Max ALS1 variant with a K→F mutation at position 237 (protein)
chain: B1 chain with A178P, K237F
modifications: ALS1 variant K237F
B3: GM-ALS_K237Q: Glycine Max ALS1 variant with a K→Q mutation at position 237 (protein)
chain: B1 chain with A178P, K237Q
modifications: ALS1 variant K237Q
B4: GM-ALS_P178Q: Glycine Max ALS1 variant with a P→Q mutation at position 178 (protein)
chain: B1 chain with A178Q
modifications: ALS1 variant P178Q
B5: GM-ALS_F559L: Glycine Max ALS1 variant with a F→L mutation at position 559 (protein)
chain: B1 chain with A178P, F559L
modifications: F559L
B6: GM-ALS_A186V: Glycine Max ALS1 variant with a A→V mutation at position 186 (protein)
chain: B1 chain with A178P, A186V
modifications: ALS1 variant A186V
B7: GM-ALS_P178S_A186V: Glycine Max ALS1 with P→S at position 178 and A→V at position 186 (protein)
chain: B1 chain with A178S, A186V
modifications: ALS1 variant P178S A186V
B8: GM-ALS_P178L_W555L: Glycine Max ALS1 with P→L at position 178 and W→L at position 555 (protein)
chain: B1 chain with A178L, W555L
modifications: ALS1 variant P178L W555L
B9: GM-ALS_W555L: Glycine Max ALS1 variant with a W→L mutation at position 555 (protein)
chain: B1 chain with A178P, W555L
modifications: ALS1 variant W555L
B10: GM-ALS_P178S_F559D: Glycine Max ALS1 with P→S at position 178 and F→D at position 559 (protein)
chain: B1 chain with A178S, F559D
modifications: ALS1 variant P178S F559D
B11: GM-ALS_D357E: Glycine Max ALS1 variant with a D→E mutation at position 357 (protein)
chain: B1 chain with A178P, D357E
modifications: ALS1 variant D357E
B12: GM-ALS_A186D: Glycine Max ALS1 variant with a A→D mutation at position 186 (protein)
chain: B1 chain with A178P, A186D
modifications: ALS1 variant A186D
B13: GM-ALS_F559D: Glycine Max ALS1 variant with a F→D mutation at position 559 (protein)
chain: B1 chain with A178P, F559D
modifications: ALS1 variant F559D
B14: GM-ALS_P178L: Glycine Max ALS1 variant with a P→L mutation at position 178 (protein)
chain: B1 chain with A178L
modifications: ALS1 variant P178L
B15: GM-ALS_P178A_F559D: Glycine Max ALS1 with P→A at position 178 and F→D at position 559 (protein)
chain: B1 chain with F559D
modifications: ALS1 variant P178A F559D
B16: GM-ALS_D357N: Glycine Max ALS1 variant with a D→N mutation at position 357 (protein)
chain: B1 chain with A178P, D357N
modifications: ALS1 variant D357N
B17: GM-ALS_P178S_D357N: Glycine Max ALS1 with P→S at position 178 and D→N at position 357 (protein)
chain: B1 chain with A178S, D357N
modifications: ALS1 variant P178S D357N

Tests used:
[1] = system: G. max ALS1 protein; assay: Substrate specificity ratio (Rf), pyruvate versus 2-ketobutyrate, LC-MS of reduced products; type: biochemical, Glycine max; details: ratio of [pyruvate] to [2-ketobutyrate] giving equal rates of acetolactate and acetohydroxybutyrate formation; 25 mM pyruvate
From the text: The “substrate specificity ratio”, or “Rf”, characterizes the specificity of the ALS enzyme for AHB formation relative to AL formation (Gollop et al. (1989) Biochemistry 28:6310-6317). Rf is the ratio of [pyruvate] to [2-ketobutyrate] that results in equal rates of formation of acetolactate and acetohydroxybutyrate. Rf is a constant at all substrate concentrations. The substrate specificity ratio is ˜114 for the wild type Glycine max ALS1 enzyme (SEQ ID NO:1) compared to ˜3 for the highly resistant allele (HRA) double mutant variant (SEQ ID NO: 10) of the Glycine max ALS1. The soybean HRA sequence is disclosed, for example, in WO2007/024782, herein incorporated by reference.
Substrate preference was determined using the assay described in Example 3; however, the assay was conducted using a constant concentration of pyruvate (25 mM) and varying concentrations of the second substrate, 2-ketobutyrate. Each reaction involving a specific ratio of pyruvate to 2-ketobutyrate, after a set period of time, was quenched by addition of sodium borohydride (7-fold excess) to form the reduced adducts of the products of the two substrates namely; reduced acetolactate for the reaction with pyruvate and reduced aceto hydroxybutyrate for the 2-ketobutyrate reaction. The relative amounts of the two reduced products was determined by first, chromatographic separation using a 4.6×250 mm dC18 column (Atlantis) equilibrated with a 0.1% formic acid solution and subsequent elution using a methanol gradient at 0.7 ml/min, followed by detection using a Thermo FINNIGAN® LTQ® Mass Spectrometer (MS). The products of the two reactions were quantified by integration of the MS signals. The % of the amount of each of the reduced products was then plotted versus the concentration of 2-ketobutyrate. As the 2-ketobutyrate amount increased there was a consequent increase in reduced acetohydroxybutyrate (AHB) and decrease in reduced acetolactate (AL). […] The substrate specificity ratio was ˜114 for the wild type enzyme compared to 3 for the highly resistant allele (HRA) double mutant ALS variant (SEQ ID NO: 10).

[2] = system: G. max ALS1 protein; assay: Colorimetric ALS kinetic assay (Km, kcat) with pyruvate as substrate; type: biochemical, Glycine max
Experimental: A survey of known ALS (AcetoLactate Synthase) gene variants (Table 2) was performed, and a number of ALS variants were selected for kinetic evaluation based on breadth and strength of insensitivity to ALS-inhibitor herbicides as well as kinetic activity parameters including the ratio of substrate preferences. The selected ALS gene variants (Table 3) were generated by PCR mediated site-directed mutagenesis. Finnzymes PHUSION® DNA polymerase (Cat. No. F-530S) was used for the PCR reactions, following the instructions for recommended temperatures and cycles in the PHUSION® protocol. Some mutagenesis reactions were assisted by the use of IN-FUSION® enzyme (Clontech Cat. No. 639620) to circularize a linear plasmid with the mutation located within the 15 nucleotide overlapping ends, via recombination following the manufacturer's protocol for primer design and reaction conditions. The ALS genes, beginning with encoded amino acids SISK, (S48 to K51 in the G. max ALS1 protein (SEQ ID NO:1) corresponding to the mature protein N-terminus of the chloroplast localized enzyme), were cloned into the PMAL® E. coli expression vector (New England Biolabs) to express ALS as a fusion protein with a Maltose-Binding Protein (MBP) at the N-terminus with a thrombin site for cleavage and a His-6 tag for affinity purification. All in vitro protein characterization described in the examples was carried out with the isolated proteins after cleavage from the His-MBP fusion partner.
Km and Kcat determinations for recombinant ALS variants (with respect to pyruvate as the substrate) were performed using a colorimetric assay. ALS assays were carried out in 96-well microplates with 150 ul reaction containing 25 mM potassium phosphate, 0.2 mg/ml BSA, 15 mM MgCl2, 0.7 mM TPP, 28 uM FAD and 0-100 mM sodium pyruvate. Reactions were initiated by the addition of ALS enzyme to a final amount of 0.8 ug/well. Parameters for Km and Vmax were determined by fitting the velocity versus substrate concentration data to a rectangular hyperbola using GraphPad Prism software. Kcat values were determined from Vmax based on protein concentration in the reactions.

Molecule	Substrate specificity ratio (Rf) [1]	Km [2]	kcat [2]
B1	119.0	5 mM	1.08 s⁻¹
B2	100.0	27 mM	2.17 s⁻¹
B3	100.0	20 mM	1.35 s⁻¹
B4	86.0	3 mM	2.72 s⁻¹
B5	62.5	6 mM	1.78 s⁻¹
B6	40.3	14 mM	0.467 s⁻¹
B7	29.0	21 mM	0.45 s⁻¹
B8	2.7	36 mM	0.35 s⁻¹
B9	2.6	1.8 mM	1.08 s⁻¹
B10	89.0	40 mM	0.833 s⁻¹
B11	67.6	3 mM	2.8 s⁻¹
B12	21.7	35 mM	0.15 s⁻¹
B13	96.0	20 mM	0.417 s⁻¹
B14	119.0	14.8 mM	4.18 s⁻¹
B15	100.0	40 mM	0.6 s⁻¹
B16	72.0	6 mM	2.5 s⁻¹
B17	49.0	4 mM	1.82 s⁻¹
